Laboratory results reported in patent publication US5811098, “Antibodies to HER4, human receptor tyrosine kinase” (Bristol-Myers Squibb Company, dated 1998).

How the values were obtained:
[1] = target: HER2/p185erbB2 (human) (human); experiment: cell-based or functional assay
[2] = target: HER3/p160erbB3 (human) (human); experiment: cell-based or functional assay
[3] = target: T1, p45, HER4 ligand purified from HepG2 conditioned medium (human, UniProt Q02297, 125I-labeled Bolton-Hunter reagent (in the binding and cross-linking assays)); experiment: binding of 125I-p45 to CHO/HER4 cell monolayers, 2 h at 4° C, Scatchard analysis (LIGAND program)
T1 sequence: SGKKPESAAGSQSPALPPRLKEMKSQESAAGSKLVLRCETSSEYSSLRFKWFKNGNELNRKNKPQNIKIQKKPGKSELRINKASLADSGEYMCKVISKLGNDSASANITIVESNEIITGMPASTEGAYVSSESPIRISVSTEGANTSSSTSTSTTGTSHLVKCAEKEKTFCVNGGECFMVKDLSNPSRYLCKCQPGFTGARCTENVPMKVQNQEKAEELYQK

B1: HAR-TX β2, chimeric heregulin-toxin protein (other)
chain: MVVKPPQNKTESENTSDKPKRKKKGGKNGKNRRNRSHLIKCAEKEKTFCVNGGECFTVKDLSNPSRYLCKCPNEFTGDRCQNYVMASFYKAEELYKLMAEEGGSLAALTAHQACHLPLETFTRHRQPRGWEQLEQCGYPVQRLVALYLAARLSWNQVDQVIRNALASPGSGGDLGEAIREQPEQARLALTLAAAESERFVRQGTGNDEAGAANADVVSLTCPVAAGECAGPADSGDALLERNYPTGAEFLGDGGDVSFSTRGTQNWTVERLLQAHRQLEERGYVFVGYHGTFLEAAQSIVFGGVRARSQDLDAIWRGFYIAGDPALAYGYAQDQEPDARGRIRNGALLRVYVPRSSLPGFYRTSLTLAGGEAAGEVERLIGHPLPLRLDAITGPEEEGGRLETILGWPLAERTVVIPSAIPTDPRNVGGDLDPSSIPDKEQAISALPDYASQPGKPPREDLK
EC50 of cytotoxicity, H3396 cells [1]: > 2 mg/L
EC50 of cytotoxicity, L2987 cells [1]: > 2 mg/L
EC50 of cytotoxicity, SK0V3 cells [1]: > 2 mg/L
EC50 of cytotoxicity, H3396 cells [2]: > 2 mg/L
EC50 of cytotoxicity, L2987 cells [2]: > 2 mg/L
EC50 of cytotoxicity, SK0V3 cells [2]: > 2 mg/L

B2: HER4/p180erbB4 (human prototype HER4) (receptor)
chain: QSVCAGTENKLSSLSDLEQQYRALRKYYENCEVVMGNLEITSIEHNRDLSFLRSVREVTGYVLVALNQFRYLPLENLRIIRGTKLYEDRYALAIFLNYRKDGNFGLQELGLKNLTEILNGGVYVDQNKFLCYADTIHWQDIVRNPWPSNLTLVSTNGSSGCGRCHKSCTGRCWGPTENHCQTLTRTVCAEQCDGRCYGPYVSDCCHRECAGGCSGPKDTDCFACMNFNDSGACVTQCPQTFVYNPTTFQLEHNFNAKYTYGAFCVKKCPHNFVVDSSSCVRACPSSKMEVEENGIKMCKPCTDICPKACDGIGTGSLMSAQTVDSSNIDKFINCTKINGNLIFLVTGIHGDPYNAIEAIDPEKLNVFRTVREITGFLNIQSWPPNMTDFSVFSNLVTIGGRVLYSGLSLLILKQQGITSLQFQSLKEISAGNIYITDNSNLCYYHTINWTTLFSTINQRIVIRDNRKAENCTAEGMVCNHLCSSDGCWGPGPDQCLSCRRFSRGRICIESCNLYDGEFREFENGSICVECDPQCEKMEDGLLTCHGPGPDNCTKCSHFKDGPNCVEKCPDGLQGANSFIFKYADPDRECHPCHPNCTQGCNGPTSHDCIYYPWTGHSTLPQHARTPLIAAGVIGGLFILVIVGLTFAVYVRRKSIKKKRALRRFLETELVEPLTPSGTAPNQAQLRILKETELKRVKVLGSGAFGTVYKGIWVPEGETVKIPVAIKILNETTGPKANVEFMDEALIMASMDHPHLVRLLGVCLSPTIQLVTQLMPHGCLLEYVHEHKDNIGSQLLLNWCVQIAKGMMYLEERRLVHRDLAARNVLVKSPNHVKITDFGLARLLEGDEKEYNADGGKMPIKWMALECIHYRKFTHQSDVWSYGVTIWELMTFGGKPYDGIPTREIPDLLEKGERLPQPPICTIDVYMVMVKCWMIDADSRPKFKELAAEFSRMARDPQRYLVIQGDDRMKLPSPNDSKFFQNLLDEEDLEDMMDAEEYLVPQAFNIPPPIYTSRARIDSNRSEIGHSPPPAYTPMSGNQFVYRDGGFAAEQGVSVPYRAPTSTIPEAPVAQGATAEIFDDSCCNGTLRKPVAPHVQEDSSTQRYSADPTVFAPERSPRGELDEEGYMTPMRDKPKQEYLNPVEENPFVSRRKNGDLQALDNPEYHNASNGPPKAEDEYVNEPLYLNTFANTLGKAEYLKNNILSMPEKAKKAFDNPDYWNHSLPPRSTLQHPDYLQEYSTKYFYKQNGRIRPIVAENPEYLSEFSLKPGTVLPPPPYRHRNTVV
Kd [3]: ~5 nM
